Experimental data taken from article PMC6499816, “Molecular determinants regulating selective binding of autophagy adapters and receptors to ATG8 proteins” (Nature Communications, 2019).

Biological target: -L1 (recombinant, BLI) (human), Q9H0R8
Experiment: BLI
Conditions: modification not given

Chain of -L1 (recombinant, BLI) (human), Q9H0R8 (Q9H0R8 whole entry): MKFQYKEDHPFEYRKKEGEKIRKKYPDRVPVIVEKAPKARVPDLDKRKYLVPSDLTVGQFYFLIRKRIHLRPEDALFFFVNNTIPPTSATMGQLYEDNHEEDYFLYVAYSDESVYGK

| Kd [µM] | Binder |
| --- | --- |
| 1.1 | NISQKSDEEDFVKIEDLPLKLTIY [PCM1 V1958I LIR peptide] |
| 5.2 | NISQKSDEEDFDKVEDLPLKLTIY [PCM1 V1956D LIR peptide] |
